Values belong to the molecule of their own block, whether it stands above or below them.
Legend:
[1] = biological target: carcinoembryonic antigen (CEA) (UniProt P06731); assay: analytical size exclusion HPLC, radioiodinated bsAb with 10-20× molar excess of CEA
[2] = biological target: Ac-Lys(DTPA)-Tyr-Lys(DTPA)-Lys(Tscg-Cys)-NH2 (IMP 192); assay: calculated from biodistribution in GW-39 tumor-bearing nude mice, 1 h after peptide, assuming one peptide bound to one bsAb
[3] = biological target: Ac-Lys(DTPA)-Tyr-Lys(DTPA)-Lys(Tscg-Cys)-NH2 (IMP 192); assay: calculated from biodistribution in GW-39 tumor-bearing nude mice, 3 h after peptide, assuming one peptide bound to one bsAb
[4] = biological target: Ac-Lys(DTPA)-Tyr-Lys(DTPA)-Lys(Tscg-Cys)-NH2 (IMP 192); assay: calculated from biodistribution in GW-39 tumor-bearing nude mice, 24 h after peptide, assuming one peptide bound to one bsAb
[5] = biological target: Ac-Lys(DTPA)-Tyr-Lys(DTPA)-Lys(Tscg-Cys)-NH2 (IMP 192); assay: calculated from biodistribution in GW-39 tumor-bearing nude mice, 30 min after peptide, assuming one peptide bound to one bsAb
[6] = biological target: hMN-14×734 (Fab×Fab) bi-specific antibody; assay: SE-HPLC shift with WI2 after incubation of radioiodinated bsAb in human serum at 37° C.
[7] = biological target: carcinoembryonic antigen (CEA) (UniProt P06731); assay: SE-HPLC, 125I-labeled bsMAb with an excess of CEA
[8] = biological target: peptide containing a single HSG substituent and a thiol; assay: BIAcore, CM-5 chip derivatised with the mono HSG peptide
[9] = biological target: DOTA-Phe-Lys(HSG)-D-Tyr-Lys(HSG)-NH2 (IMP 241); assay: in vivo pretargeting, GW-39 tumor-bearing nude mice, 3 h after 111In-IMP-241
[10] = biological target: carcinoembryonic antigen (CEA) (UniProt P06731); assay: immunoreactivity test of 99mTc-hMN-14 Fab′, method and antigen not stated

Chain of carcinoembryonic antigen (CEA) (P06731 35-685 limits assumed): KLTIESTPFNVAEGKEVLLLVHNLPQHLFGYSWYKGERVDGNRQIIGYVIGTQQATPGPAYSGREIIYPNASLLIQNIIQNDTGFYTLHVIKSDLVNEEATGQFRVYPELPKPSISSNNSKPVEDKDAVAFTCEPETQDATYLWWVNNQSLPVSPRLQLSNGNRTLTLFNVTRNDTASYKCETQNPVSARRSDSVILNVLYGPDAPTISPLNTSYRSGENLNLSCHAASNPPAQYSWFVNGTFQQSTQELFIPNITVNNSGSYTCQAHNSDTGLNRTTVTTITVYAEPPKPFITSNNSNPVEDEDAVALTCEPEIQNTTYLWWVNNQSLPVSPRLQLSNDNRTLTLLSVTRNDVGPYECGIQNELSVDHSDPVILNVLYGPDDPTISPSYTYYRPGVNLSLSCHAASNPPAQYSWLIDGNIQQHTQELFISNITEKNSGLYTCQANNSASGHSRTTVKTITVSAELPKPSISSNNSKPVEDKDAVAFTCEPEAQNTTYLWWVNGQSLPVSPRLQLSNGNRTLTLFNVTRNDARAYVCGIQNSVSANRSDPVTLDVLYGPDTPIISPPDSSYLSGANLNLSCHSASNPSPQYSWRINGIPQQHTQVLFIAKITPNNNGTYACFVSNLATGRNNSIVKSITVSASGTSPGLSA

- percent of bsAb bound [1]: 90%
- % saturation on hMN-14 × 734 (available DTPA binding sites on the tumor bound bsAb filled with 99m-Tc-IMP-192) [2]: 25.8%
- % saturation on hMN-14 × 734 (available DTPA binding sites on the tumor bound bsAb filled with 99m-Tc-IMP-192) [3]: 25%
- % saturation on hMN-14 × 734 (available DTPA binding sites on the tumor bound bsAb filled with 99m-Tc-IMP-192) [4]: 28%
- % saturation on hMN-14 × 734 (available DTPA binding sites on the tumor bound bsAb filled with 99m-Tc-IMP-192) [5]: 25.4%
Molecule: hMN-14×734 (Fab×Fab) bi-specific antibody (bispecific antibody)

- % loss of binding capacity to WI2 after 48 h in serum [6]: 3 to 5%
Molecule: WI2 (rat anti-MN-14 idiotypic antibody)

- percent of radiolabeled product shifting to a higher molecular weight [7]: > 90%
- Kd [8]: 1.5 nM
- ratio of the % ID/g of the peptide compared to the bsMAb in the tumor [9]: 3.9
Molecule: hMN-14×m679 F(ab′)2 bsMAb (bispecific antibody)

- immunoreactive fraction [10]: 92%
B1: 99mTc-hMN-14 Fab′ (humanized MN-14 Fab′-SH) (Fab, INN chains, looked up, V domains shown)
VH: EVQLVESGGGVVQPGRSLRLSCSASGFDFTTYWMSWVRQAPGKGLEWIGEIHPDSSTINYAPSLKDRFTISRDNAKNTLFLQMDSLRPEDTGVYFCASLYFGFPWFAYWGQGTPVTVSS
VL: DIQLTQSPSSLSASVGDRVTITCKASQDVGTSVAWYQQKPGKAPKLLIYWTSTRHTGVPSRFSGSGSGTDFTFTISSLQPEDIATYYCQQYSLYRSFGQGTKVEIK
modifications: Fab' 99mTc label
